US10286078B2, “Modified therapeutic agents and compositions thereof” (THE CALIFORNIA INSTITUTE FOR BIOMEDICAL RESEARCH, priority 2013, dated 2019)
Like-named read-outs stand apart in the source and are kept apart here. Where no end group is shown, it is not given here.

How the values were obtained:
[1] = target: T1, human Nav1.7 (Homo sapiens, UniProt Q15858); assay: NaV 1.7 current measurement on IonFlux HT; assay type: cell-based; conditions: HEK293 cells overexpressing alpha and beta-1 subunits of human Nav1.7
T1 construct: host or cells: HEK293
T1 sequence (Q15858 whole entry): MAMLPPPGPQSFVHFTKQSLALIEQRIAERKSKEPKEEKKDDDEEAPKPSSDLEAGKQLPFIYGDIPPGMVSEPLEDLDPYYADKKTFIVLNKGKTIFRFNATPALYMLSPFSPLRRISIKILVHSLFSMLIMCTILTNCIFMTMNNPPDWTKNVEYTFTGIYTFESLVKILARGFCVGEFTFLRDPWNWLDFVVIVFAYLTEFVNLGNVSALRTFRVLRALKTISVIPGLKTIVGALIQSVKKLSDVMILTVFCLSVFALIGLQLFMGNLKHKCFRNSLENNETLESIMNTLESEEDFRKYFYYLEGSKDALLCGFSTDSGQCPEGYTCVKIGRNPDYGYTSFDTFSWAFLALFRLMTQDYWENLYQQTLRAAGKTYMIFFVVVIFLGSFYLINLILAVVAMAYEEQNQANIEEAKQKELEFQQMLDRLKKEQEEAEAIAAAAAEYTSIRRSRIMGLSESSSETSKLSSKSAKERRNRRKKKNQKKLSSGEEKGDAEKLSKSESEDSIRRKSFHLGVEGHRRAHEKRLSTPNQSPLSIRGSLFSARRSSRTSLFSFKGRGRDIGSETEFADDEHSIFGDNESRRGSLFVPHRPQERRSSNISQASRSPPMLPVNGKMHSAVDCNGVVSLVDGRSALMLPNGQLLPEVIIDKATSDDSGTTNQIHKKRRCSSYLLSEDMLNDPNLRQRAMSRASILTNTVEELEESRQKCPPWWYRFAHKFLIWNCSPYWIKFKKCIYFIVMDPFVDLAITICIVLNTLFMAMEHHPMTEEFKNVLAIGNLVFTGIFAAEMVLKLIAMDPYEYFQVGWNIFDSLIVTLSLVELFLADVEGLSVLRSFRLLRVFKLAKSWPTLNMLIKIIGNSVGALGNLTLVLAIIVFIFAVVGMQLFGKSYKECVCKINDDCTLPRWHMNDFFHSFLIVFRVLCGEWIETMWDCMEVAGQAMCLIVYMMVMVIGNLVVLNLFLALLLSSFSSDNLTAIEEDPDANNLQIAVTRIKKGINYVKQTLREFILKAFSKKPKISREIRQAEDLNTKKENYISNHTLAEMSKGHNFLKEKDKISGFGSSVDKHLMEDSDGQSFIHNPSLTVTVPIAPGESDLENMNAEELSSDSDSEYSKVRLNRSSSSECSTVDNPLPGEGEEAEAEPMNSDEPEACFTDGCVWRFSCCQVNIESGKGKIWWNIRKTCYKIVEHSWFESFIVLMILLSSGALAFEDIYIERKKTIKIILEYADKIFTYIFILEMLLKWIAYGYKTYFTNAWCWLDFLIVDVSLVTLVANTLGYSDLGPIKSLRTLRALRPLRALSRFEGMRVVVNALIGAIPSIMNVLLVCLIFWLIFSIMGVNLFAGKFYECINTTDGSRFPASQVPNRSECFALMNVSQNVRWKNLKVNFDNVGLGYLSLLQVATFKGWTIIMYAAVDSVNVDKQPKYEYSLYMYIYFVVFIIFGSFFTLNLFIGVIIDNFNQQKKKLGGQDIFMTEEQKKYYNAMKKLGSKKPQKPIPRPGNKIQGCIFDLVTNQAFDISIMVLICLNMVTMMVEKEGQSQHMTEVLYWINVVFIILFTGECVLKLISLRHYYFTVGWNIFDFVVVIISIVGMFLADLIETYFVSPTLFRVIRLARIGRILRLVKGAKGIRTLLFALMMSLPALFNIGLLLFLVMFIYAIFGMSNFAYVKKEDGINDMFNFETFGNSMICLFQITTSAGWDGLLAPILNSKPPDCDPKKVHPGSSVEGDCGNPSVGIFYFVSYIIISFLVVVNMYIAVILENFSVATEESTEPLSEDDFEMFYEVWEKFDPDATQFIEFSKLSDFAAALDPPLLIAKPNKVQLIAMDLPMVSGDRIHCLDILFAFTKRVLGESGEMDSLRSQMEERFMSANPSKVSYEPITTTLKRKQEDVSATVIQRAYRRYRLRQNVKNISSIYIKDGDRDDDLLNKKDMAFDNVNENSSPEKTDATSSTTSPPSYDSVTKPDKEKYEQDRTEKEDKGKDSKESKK
T1 sequence (Q07699 19-218, further chain): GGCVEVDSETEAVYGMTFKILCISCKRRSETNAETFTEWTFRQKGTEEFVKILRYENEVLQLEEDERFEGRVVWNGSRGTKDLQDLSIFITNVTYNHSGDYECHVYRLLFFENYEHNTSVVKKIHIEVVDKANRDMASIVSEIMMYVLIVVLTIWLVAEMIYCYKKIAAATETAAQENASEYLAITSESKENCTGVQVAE
Protocol: Toxin-550 peptides were assayed on the IonFlux HT using standard running conditions for measurement of NaV 1.7 current. Briefly, HEK293 cells overexpressing the alpha and beta-1 subunits of human Nav1.7 (PrecisION, Millipore) were trypsinized, brought up in serum-free media and allowed to shake at room temperature for 30 minutes. Compounds were diluted into standard extracellular Ringer's solution (ECS) at desired concentration. Cells were washed once with ECS and then brought up in ECS at a concentration of 4 million cells/mL. IonFlux HT plate was set up according to standard protocols.
NaV 1.7 current was measured on the IonFlux according to the following voltage step protocol:
1. The cells were held at −90 mV with a period of 10 seconds.
2. The cells were stepped from −90 mV to −120 mV for 100 ms. • a. then to −10 mV for 30 ms and • b. then back to −90 mV for 30 ms.
Baseline current was allowed to stabilize for 5 minutes, then a control baseline (ECS only) was established. Compound was applied for 20 minutes, and then a positive control (peptide NaV1.7 blocker) was applied.
Leak subtraction was then performed on the data and the resulting currents are analyzed as follows: • 1. […] For a given time (e.g. 10 minutes post-compound addition), percent block was calculated as I/Imax.

[2] = In vivo pharmacokinetic (PK) study for half-life extension; conditions: mouse, plasma, mice
Protocol: Lipid conjugated relaxin or other therapeutic agents are dosed in mice using sc, po, iv dosing. Plasma levels of TA are determined by ms, lgr7, glp1r and/or gcgr activation at different time points (e.g., i.v. PK 5 min, 0.5 h, 1 h, 2 h 4 h, 8 h, 24 h, 48 h, 96 h & 144 h and s.c. PK. 15 min, 0.5 h, 1 h, 2 h, 4 h, 8 h, 24 h, 48 h, 96 h and 144 h). Select PK data are shown in FIGS. 11, 12, and 15, and Table 2.

[3] = target: T2, LGR7 (Homo sapiens, UniProt Q9HBX9); assay: LGR7 CRE-Luc reporter gene assay (relaxin bioactivity); assay type: cell-based; conditions: HEK293T cells expressing LGR7 and CRE-Luc; EC50 after non-linear curve fitting
T2 construct: expressed in transfected cells
T2 sequence (Q9HBX9 1-757): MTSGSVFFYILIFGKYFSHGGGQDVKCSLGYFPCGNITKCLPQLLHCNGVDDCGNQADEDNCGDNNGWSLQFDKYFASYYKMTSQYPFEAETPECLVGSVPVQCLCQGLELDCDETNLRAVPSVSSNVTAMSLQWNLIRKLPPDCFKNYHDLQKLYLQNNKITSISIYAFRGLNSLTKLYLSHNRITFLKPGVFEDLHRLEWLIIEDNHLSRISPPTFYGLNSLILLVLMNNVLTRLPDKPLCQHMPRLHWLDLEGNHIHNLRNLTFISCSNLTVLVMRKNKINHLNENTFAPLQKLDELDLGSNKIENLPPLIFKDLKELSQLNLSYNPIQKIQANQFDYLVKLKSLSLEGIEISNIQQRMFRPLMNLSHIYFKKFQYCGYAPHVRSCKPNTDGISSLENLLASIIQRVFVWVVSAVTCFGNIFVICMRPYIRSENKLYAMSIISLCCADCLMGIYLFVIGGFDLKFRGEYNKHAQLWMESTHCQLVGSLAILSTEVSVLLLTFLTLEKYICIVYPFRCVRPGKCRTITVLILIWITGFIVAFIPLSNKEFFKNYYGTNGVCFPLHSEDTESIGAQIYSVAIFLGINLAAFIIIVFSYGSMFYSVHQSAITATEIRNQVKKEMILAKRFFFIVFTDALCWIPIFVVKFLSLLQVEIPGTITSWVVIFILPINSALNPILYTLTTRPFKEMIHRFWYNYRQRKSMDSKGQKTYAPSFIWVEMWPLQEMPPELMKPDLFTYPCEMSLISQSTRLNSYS
Protocol: Relaxin 2 signals through leucine-rich repeat-containing GPCRs (i.e. LGR7 (RFXR1)). The bioactivity of wild-type relaxin peptides was determined based on the stimulation of adenylate cyclase activity in HEK293T cells stably expressing recombinant LGR7. Stable LGR7 expressing cells were maintained in Dulbecco's modified Eagle's medium/F-12 media supplemented with […] Zeocin (Invitrogen). A cyclic AMP responsive element driven luciferase (CRE-Luc) reporter line was generated by lentiviral transduction of these LGR7 expressing HEK293T cells with CRE-Luc lentivirus (Qiagen) and selected with puromycine (2 μg/mL) for two weeks. A reporter gene assay was used to detect cAMP levels and LGR7 activation by relaxin.
Assay detail: HEK293T cells expressing LGR7 and CRE-Luc are seeded at a density of 5×10^3 cells per well in 50 μl of Dulbecco's modified Eagle's medium/F-12 medium containing 10% FBS in 384-well solid bottom white plates. Cells are pre-incubated at 37° C. for overnight. Different concentrations of relaxin peptides (from 0.01 nM to 1000 nM) were added in triplicate, incubated for 18 hours and luciferase activity was detected by adding […] of Bright Glo (Promega). Luminescence was recorded on Envision (Perkin Elmer). EC50 is calculated after non-linear curve fitting (see FIG. 3 for relaxin H2 dose response curve).

[4] = iv, i.v., read-out: Half-life (hours) i.v. (converted)
[5] = sc, s.c., read-out: Half-life (hours) s.c. (converted)

Row | Compound | Activity: % block at 100 nM [1] | half-life [2, 4] | half-life [2, 5] | EC50 [3]
1 | 550-4-GSCGG-FA1: 550-4-GSCGG (SEQ ID NO: 28) with lipid FA1 (GSCGGECIGMFKSCDPENDKCCKGRTCSRKHRWCKYKL; cysteine pairing not given here; also: lipid FA1) | 85% block | – | – | –
2 | CC[C@H](C)[C@@H]1NC(=O)[C@H](C)NC(=O)[C@H]([C@@H](C)CC)NC(=O)[C@H](CCC(N)=O)NC(=O)[C@H](C)NC(=O)[C@H](CCCNC(=N)N)NC(=O)[C@H](C(C)C)NC(=O)[C@H](CC(C)C)NC(=O)[C@H](CCC(=O)O)NC(=O)[C@H](CCCNC(=N)N)NC(=O)CNC(=O)[C@@H](NC(=O)[C@H](CC(C)C)NC(=O)[C@H](CCCCN)NC(=O)[C@@H](NC(=O)[C@@H](NC(=O)[C@H](CCC(=O)O)NC(=O)[C@H](CCC(=O)O)NC(=O)[C@H](CCSC)NC(=O)[C@H](Cc2c[nH]c3ccccc23)NC(=O)[C@H](CO)NC(=O)[C@H](C)N)C(C)C)[C@@H](C)CC)CSSC[C@@H]2NC(=O)[C@@H](NC(=O)[C@H](CCCCN)NC(=O)[C@H](CC(N)=O)NC(=O)[C@H](C)NC(=O)[C@H](CC(C)C)NC(=O)[C@H](C)NC(=O)[C@H](CO)NC(=O)[C@H](Cc3ccc(O)cc3)NC(=O)[C@H](CC(C)C)NC(=O)[C@@H](N)CSCC(=O)NCCOCCOCCC(=O)NCCOCCOCCC(=O)NCCCC[C@H](NC(=O)CCCCCCCCCCCCCCCCC(=O)O)C(=O)O)CSSC[C@H](NC(=O)CNC(=O)[C@H](C(C)C)NC(=O)[C@H](Cc3c[nH]cn3)NC2=O)C(=O)N[C@@H]([C@@H](C)O)C(=O)N[C@@H](CCCCN)C(=O)N[C@@H](CCCNC(=N)N)C(=O)N[C@@H](CO)C(=O)N[C@@H](CC(C)C)C(=O)N[C@@H](C)C(=O)N[C@@H](CCCNC(=N)N)C(=O)N[C@@H](Cc2ccccc2)C(=O)N[C@H](C(=O)O)CSSC[C@@H](C(=O)NCC(=O)N[C@@H](CCSC)C(=O)N[C@@H](CO)C(=O)N[C@H](C(=O)N[C@@H](Cc2c[nH]c3ccccc23)C(=O)N[C@@H](CO)C(=O)O)[C@@H](C)O)NC1=O [Relaxin-B-D1A, A-Q1C-FA2] | – | 3.5 h | 7.8 h | –
3 | CCCCCCCCCCCCCC(=O)NCCOCCOCCNC(=O)CSC[C@H](NC(=O)[C@H](Cc1c[nH]c2ccccc12)NC(=O)[C@@H](NC(=O)[C@H](CO)NC(=O)[C@H](CCSC)NC(=O)CNC(=O)[C@@H]1CSSC[C@@H](C(=O)O)NC(=O)[C@H](Cc2ccccc2)NC(=O)[C@H](CCCNC(=N)N)NC(=O)[C@H](C)NC(=O)[C@H](CC(C)C)NC(=O)[C@H](CO)NC(=O)[C@H](CCCNC(=N)N)NC(=O)[C@H](CCCCN)NC(=O)[C@H]([C@@H](C)O)NC(=O)[C@@H]2CSSC[C@H](NC(=O)[C@H](CCCCN)NC(=O)[C@H](CC(N)=O)NC(=O)[C@H](C)NC(=O)[C@H](CC(C)C)NC(=O)[C@H](C)NC(=O)[C@H](CO)NC(=O)[C@H](Cc3ccc(O)cc3)NC(=O)[C@H](CC(C)C)NC(=O)[C@@H](N)CCC(N)=O)C(=O)N[C@@H](CSSC[C@H](NC(=O)[C@H](CC(C)C)NC(=O)[C@H](CCCCN)NC(=O)[C@@H](NC(=O)[C@@H](NC(=O)[C@H](CCC(=O)O)NC(=O)[C@H](CCC(=O)O)NC(=O)[C@H](CCSC)NC(=O)[C@H](Cc3c[nH]c4ccccc34)NC(=O)[C@H](CO)NC(=O)[C@H](CC(=O)O)NC(=O)CNC(=O)CNC(=O)[C@H](CO)NC(=O)CNC(=O)[C@H](CCC(N)=O)NC(=O)[C@H](Cc3ccccc3)NC(=O)[C@H](Cc3ccc(O)cc3)NC(=O)[C@H](CC(C)C)NC(=O)[C@H](CC(N)=O)NC(=O)[C@H](CCC(=O)O)NC(=O)[C@H](Cc3c[nH]cn3)NC(=O)[C@H](Cc3c[nH]cn3)NC(=O)[C@H](Cc3c[nH]cn3)NC(=O)[C@H](Cc3c[nH]cn3)NC(=O)[C@H](Cc3c[nH]cn3)NC(=O)[C@H](Cc3c[nH]cn3)NC(=O)[C@H](Cc3c[nH]cn3)NC(=O)[C@@H](N)Cc3c[nH]cn3)C(C)C)[C@@H](C)CC)C(=O)NCC(=O)N[C@@H](CCCNC(=N)N)C(=O)N[C@@H](CCC(=O)O)C(=O)N[C@@H](CC(C)C)C(=O)N[C@@H](C(C)C)C(=O)N[C@@H](CCCNC(=N)N)C(=O)N[C@@H](C)C(=O)N[C@@H](CCC(N)=O)C(=O)N[C@@H]([C@@H](C)CC)C(=O)N[C@@H](C)C(=O)N[C@@H]([C@@H](C)CC)C(=O)N1)C(=O)N[C@@H](Cc1c[nH]cn1)C(=O)N[C@@H](C(C)C)C(=O)NCC(=O)N2)[C@@H](C)O)C(=O)O [Tev-Relaxin-B-S29C-FA1] | – | – | – | 1 nM
4 | 550-: Toxin-550 peptide, probably SEQ ID NO: 30 (ECIGMFKSCDPENDKCCKGRTCSRKHRWCKYKL) [Entry 550-] | 87% block | – | – | –
5 | CCCCCCCCCCCCCC(=O)NCCOCCOCCNC(=O)CSC[C@H](NC(=O)[C@H](Cc1c[nH]c2ccccc12)NC(=O)[C@@H](NC(=O)[C@H](CO)NC(=O)[C@H](CCSC)NC(=O)CNC(=O)[C@@H]1CSSC[C@@H](C(=O)O)NC(=O)[C@H](Cc2ccccc2)NC(=O)[C@H](CCCNC(=N)N)NC(=O)[C@H](C)NC(=O)[C@H](CC(C)C)NC(=O)[C@H](CO)NC(=O)[C@H](CCCNC(=N)N)NC(=O)[C@H](CCCCN)NC(=O)[C@H]([C@@H](C)O)NC(=O)[C@@H]2CSSC[C@H](NC(=O)[C@H](CCCCN)NC(=O)[C@H](CC(N)=O)NC(=O)[C@H](C)NC(=O)[C@H](CC(C)C)NC(=O)[C@H](C)NC(=O)[C@H](CO)NC(=O)[C@H](Cc3ccc(O)cc3)NC(=O)[C@H](CC(C)C)NC(=O)[C@@H](N)CCC(N)=O)C(=O)N[C@@H](CSSC[C@H](NC(=O)[C@H](CC(C)C)NC(=O)[C@H](CCCCN)NC(=O)[C@@H](NC(=O)[C@@H](NC(=O)[C@H](CCC(=O)O)NC(=O)[C@H](CCC(=O)O)NC(=O)[C@H](CCSC)NC(=O)[C@H](Cc3c[nH]c4ccccc34)NC(=O)[C@H](CO)NC(=O)[C@H](C)N)C(C)C)[C@@H](C)CC)C(=O)NCC(=O)N[C@@H](CCCNC(=N)N)C(=O)N[C@@H](CCC(=O)O)C(=O)N[C@@H](CC(C)C)C(=O)N[C@@H](C(C)C)C(=O)N[C@@H](CCCNC(=N)N)C(=O)N[C@@H](C)C(=O)N[C@@H](CCC(N)=O)C(=O)N[C@@H]([C@@H](C)CC)C(=O)N[C@@H](C)C(=O)N[C@@H]([C@@H](C)CC)C(=O)N1)C(=O)N[C@@H](Cc1c[nH]cn1)C(=O)N[C@@H](C(C)C)C(=O)NCC(=O)N2)[C@@H](C)O)C(=O)O [Relaxin-B-D1AS29C-FA1] | – | 0.5 h | 1.2 h | –
